Earlier results on one substance are cited in paper PMC6003685.

This series deals with PspF 1-265 (Escherichia coli) (UniProt P37344).

By Kd is commonly meant the concentration at which binding is half-saturated. Turning to PspA 1-144 (from UniProt P0AFM6), the Kd was 1 µM.
